Measurements from patent US20250043001A1 (Xencor, published 2025).

Molecular target: T1, STEAP1 (UniProt Q9UHE8 1-339, limits assumed)
T1 construct: whole, on cells; also called Six-Transmembrane Epithelial Antigen of the Prostate 1
Experiment: cell binding (MFI) on LOX-IMVI cells expressing STEAP1
Description: STEAP1 x CD28 bsAbs were engineered in 2+1 formats (mAb-scFv or Fab₂-scFv-Fc) to investigate the effects of bivalent binding to STEAP1 antigen compared with monovalent binding of a STEAP1 x CD28 bsAb in the 1+1 Fab-scFv format. LOX-IMVI cells (which express both STEAP1 at—8000 antigens/cell as well as an aCD3-scFv in order to provide Signal 1) were mixed with purified T cells at a 1:1 E:T ratio. As depicted in FIG. 36, XENP47235 in the […] format reaches a higher level of binding as measured by the MFI, indicating a higher antigen binding capacity and potentially higher efficacy. […] Each format may be advantageous in different contexts.

B1: XENP47241 (bispecific antibody)
heavy 1: QVQVQESGPGLVKPSQTLSLTCTVSGYSITSDYSWNWIRQPPGKKLEWIGYIGTSGSTVYNPSLKSRVTISRDTSKNQFSLKLSSVTAADTAVYYCARERNYDYELYYYAMDYWGQGTLVTVSSASTKGPSVFPLAPSSKSTSGGTAALGCLVKDYFPEPVTVSWNSGALTSGVHTFPAVLQSSGLYSLSSVVTVPSSSLGTQTYICNVNHKPSDTKVDKKVEPKSCDKTHTCPPCPAPPVAGPSVFLFPPKPKDTLMISRTPEVTCVVVDVKHEDPEVKFNWYVDGVEVHNAKTKPREEEYNSTYRVVSVLTVLHQDWLNGKEYKCKVSNKALPAPIEKTISKAKGQPREPQVYTLPPSREEMTKNQVSLTCDVSGFYPSDIAVEWESDGQPENNYKTTPPVLDSDGSFFLYSKLTVDKSRWEQGDVFSCSVLHEALHSHYTQKSLSLSPGK
heavy 2: not shown
light 1: not shown
light 2: not shown
notes: also called STEAP1 x CD28 bsAb in the 2+1 mAb-scFv format
**Q.** Does B1 bind?
**A.** binds
